Reference: publication PMC9356133, “Regulatory mechanisms of lipopolysaccharide synthesis in Escherichia coli” (Nature Communications, 2022)

B1: LpxC labeled with Atto488 (enzyme, Escherichia coli strain CFT073, UniProt P0A725 1-305, looked up)
chain: MIKQRTLKRIVQATGVGLHTGKKVTLTLRPAPANTGVIYRRTDLNPPVDFPADAKSVRDTMLCTCLVNEHDVRISTVEHLNAALAGLGIDNIVIEVNAPEIPIMDGSAAPFVYLLLDAGIDELNCAKKFVRIKETVRVEDGDKWAEFKPYNGFSLDFTIDFNHPAIDSSNQRYAMNFSADAFMRQISRARTFGFMRDIEYLQSRGLCLGGSFDCAIVVDDYRVLNEDGLRFEDEFVRHKMLDAIGDLFMCGHNIIGAFTAYKSGHALNNKLLQAVLAKQEAWEYVTFQDDAELPLAFKAPSAVLA
modifications: Atto488 dye (Atto488 protein labeling kit, protein to dye ratio of 6:1)
notes: LpxC, amplified from Escherichia coli strain CFT073 genomic DNA; His tag removed by 3C protease; also called LpxC-Atto488; source: E. coli BL21 Star (DE3) pLysS, purified (Ni-NTA, 3C cleavage, gel filtration), labeled with Atto488; not shown: His tag, N-terminal, cleaved
B2: LapB cytoplasmic domain (LapB_(cyto)) (domain or fragment, Escherichia coli strain CFT073, UniProt P0AB58 21-389, looked up)
chain: RRSAQQNKQDEANRLSRDYVAGVNFLLSNQQDKAVDLFLDMLKEDTGTVEAHLTLGNLFRSRGEVDRAIRIHQTLMESASLTYEQRLLAIQQLGRDYMAAGLYDRAEDMFNQLTDETDFRIGALQQLLQIYQATSEWQKAIDVAERLVKLGKDKQRVEIAHFYCELALQHMASDDLDRAMTLLKKGAAADKNSARVSIMMGRVFMAKGEYAKAVESLQRVISQDRELVSETLEMLQTCYQQLGKTAEWAEFLQRAVEENTGADAELMLADIIEARDGSEAAQVYITRQLQRHPTMRVFHKLMDYHLNEAEEGRAKESLMVLRDMVGEKVRSKPRYRCQKCGFTAYTLYWHCPSCRAWSTIKPIRGLDGL

Experiments:
FtsH (non-tagged) = FtsH (non-tagged) (Escherichia coli strain CFT073, UniProt P0AAI3 1-644); assay: cell-based or functional assay
Chain of FtsH (non-tagged) (P0AAI3 whole entry): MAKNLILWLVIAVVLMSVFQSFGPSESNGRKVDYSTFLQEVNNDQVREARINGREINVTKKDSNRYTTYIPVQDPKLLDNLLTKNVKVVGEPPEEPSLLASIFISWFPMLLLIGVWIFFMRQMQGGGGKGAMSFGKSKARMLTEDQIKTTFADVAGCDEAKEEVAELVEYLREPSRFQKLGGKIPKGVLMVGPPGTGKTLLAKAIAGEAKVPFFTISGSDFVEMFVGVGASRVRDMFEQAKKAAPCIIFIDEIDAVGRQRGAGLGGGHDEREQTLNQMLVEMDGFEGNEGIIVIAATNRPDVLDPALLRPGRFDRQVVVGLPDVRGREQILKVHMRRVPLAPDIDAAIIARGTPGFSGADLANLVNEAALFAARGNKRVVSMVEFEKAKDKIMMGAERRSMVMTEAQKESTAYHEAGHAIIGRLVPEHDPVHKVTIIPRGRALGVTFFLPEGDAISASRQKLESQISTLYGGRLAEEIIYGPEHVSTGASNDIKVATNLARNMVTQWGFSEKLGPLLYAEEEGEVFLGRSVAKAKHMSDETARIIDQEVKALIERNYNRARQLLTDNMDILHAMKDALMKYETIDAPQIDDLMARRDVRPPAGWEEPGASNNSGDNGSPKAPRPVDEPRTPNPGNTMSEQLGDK

[1] = biological target: B2; assay: inhibition of a protease assay (Kd calculated from the IC50); 0.06 μM FtsH/LapB complex on POPC liposomes, 1.8 μM LpxC-Atto488, 0-12.96 μM LapB_(cyto) in solution, 37 °C, 20 min; Kd = (IC50 – 2KM/3)/2; details: both partners purified
[2] = biological target: B1; assay: cell-based or functional assay

Binder | fold reduction by LapB of the KM for LpxC degradation by FtsH proteoliposomes (FtsH (non-tagged)) [fold] | Kd [1] [nM] | IC50 of inhibition of LpxC-Atto488 degradation by FtsH/LapB proteoliposomes (0-12.96 μM LapB_(cyto)) [2] [nM]
B1 | ~8 | 1340 | –
B2 | – | – | 3960
